Test results taken from US20120122128A1.
Residue numbers refer to the chain shown, from its start.

What was measured:
[1] = biological target: T1, SNAP-25 peptide comprising amino acids 134-197 of SEQ ID NO: 5 (human); assay: SPR (BIAcore 3000), peptide amine-coupled to CM5 chip, antibody as analyte, 1:1 fit
[2] = biological target: T1, SNAP-25 peptide comprising amino acids …; assay: SPR, comparison of the KD values of Table 9
[3] = biological target: SNAP-25 peptide comprising amino acids 134-197 of SEQ ID NO: 5 (human); assay: SPR (BIAcore 3000), peptide amine-coupled to CM5 chip, antibody as analyte, 1:1 fit; remark: listed apart in the source
[4] = biological target: T1, SNAP-25 peptide comprising amino acids …; assay: SPR, comparison of the Kd values of Table 9
[5] = biological target: T1, SNAP-25 peptide comprising amino acids …; assay: SPR (BIAcore 3000), peptide amine-coupled to CM5 chip, antibody as analyte, 1:1 fit, second independent run on another chip
[6] = biological target: T1, SNAP-25 peptide comprising amino acids …; assay: SPR (BIAcore 3000), peptide amine-coupled to CM5 chip, antibody as analyte, 1:1 fit, first of two runs

B1: α-SNAP-25 monoclonal antibody 1D3B8 (antibody, V domains shown)
VH: VKLQESGAELVKPGASVKISCKASGYIFTDHALHWVRQKPEQGLEWIGYIFPGNGNIEYNEKFKGKATLTADKSSSTAYMQLNSLTSGDSAMYFCKKMDYWGQGTTVTVSS
VL: DVLMTQTPLSLPVSLGDQASISCRSSQSIVHSNGNTYLEWYLQKPGQSPKLLIYKVSNRFSGVPDRFSGSGSGTDFTLKISRVEAEDLGVYYCFQGSHVPPTFGAGTKLELKR
[1]
  Kd: 0.05 nM
  koff: 5.78e-05 s⁻¹
  kon: 1.06e+06 M⁻¹ s⁻¹
[2]
  fold difference of equilibrium disassociation constant against MC-6050 and MC-6053: 10 fold

B2: α-SNAP-25 monoclonal antibody 2C9B10 (antibody, V domains shown)
VH: B1 VH with I27T, A32S, L33I, R37K, E41G, I50L, I57F, Q81H, G88E, M92V
VL: DIQMTQSPASLSASVGETVTITCRTTENIYSYFVWSQQRQGKSPQLRVYNAKSLAEGVPSSFNVSVSGTQFSLKINSLQPEDFGTYHCQHHYGTPYTFGGGTRLEIRR
[3]
  Kd: 27.1 nM
  koff: 0.000311 s⁻¹
  kon: 11500 M⁻¹ s⁻¹

B3: α-SNAP-25 monoclonal antibody 3C1A5 (antibody, V domains shown)
VH: VKLQESGAELVKPGASVKISCKASGYTFTDHSIHWVKQKPGQGLEWIGYLFPGNGNFEYNEKFKGKATLTADKSSSTVYMYLNSLTSEDSAVYFCKRMGYWGQGTTVTVSS
VL: DIKMTQSPSSMYASLGERVTITCKASQDIKSYLSWYQQKPWKSPKTLIYYATSLADGVPSRFSGSGSGQDYSLTISSLESDDTATYYCLQHGESPFTFGSGTKLEIKR
[1]
  Kd: 1.33 nM
  koff: 0.000288 s⁻¹
  kon: 217000 M⁻¹ s⁻¹

B4: α-SNAP-25 monoclonal antibody 2E2A6 (antibody)
chain 1: QVQLQQSDAELVKPGASVKISCRASGYTFTDHSIHWVKQQPGQGLEWIGYIFPGNGNIEYNDKFKGKATLTADKSSGTAYMQLNSLTSEDSAVYFCKRMGYWGQGTSVTVSS
chain 2: DVLMTQTPLTLSVTIGQPASISCKSSQSLLYTNGKTYLTWLFQRPGQSPKRLIYLVSELDSGVPDRFSGSGSGTDFTLEITRVEAEDLGVYYCLQSAHFPFTFGSGTKLEIKR
[4]
  fold slower off rate against MC-6050 and MC-6053: > 1 fold
[5]
  Kd: 0.405 nM
  koff: 6.74e-05 s⁻¹
  kon: 166000 M⁻¹ s⁻¹
[6]
  Kd: 0.09 nM
  koff: 0.000153 s⁻¹
  kon: 1.7e+06 M⁻¹ s⁻¹
